Results taken from publication doi:10.1101/2020.05.01.070730 (bioRxiv, 2020).

B1: MutS from Pseudomonas aeruginosa (natural protein, UniProt Q9HY08 1-855, looked up)
chain: MTDLSQHTPMMQQYFKLKHQHPDQLMFYRMGDFYELFYEDAKKAAKLLDITLTARGQSGGKAIPMAGIPFHSAEGYLAKLVKLGESVAICEQIGDPATSKGPVERQVVRIITPGTVSDEALLDERRDNLLAAILGDERLFGLAVLDITSGRFSVQEIKGWETLLAELERLNPAELLIPDDWPQGLPAEKRRGVRRRAPWDFDRDSAHKSLCQQFGTQDLKGFGCQNLTLAIGAAGCLLAYAKETQRTALPHLRSLRHDRLDDTVILDGASRRNLELDINLSGGRENTLQSVVDRCQTAMASRLMSRWLNRPLRDRAVLEARQESIACLLERYRFENLQPQLKEIGDLERILARIGLRNARPRDLARLRDALAALPDLQNAMTELEAPHLQALATTIGTYPELAELLAKAIIDNPPAVIRDGGVIKTGYDAELDELQALSENAGQFLMDLEAREKARTGLPNLKVGYNRIHGYFIELPRVQAEQAPADYIRRQTLKGAERFITPELKAFEDKALSAQSRALAREKALYEELLERLIGHLAPLQDSASALAELDVLANLAERALNLDLNRPRFVEHTCLHIEQGRHPVVEQVLETPFVANDLALDADTRMLVITGPNMGGKSTYMRQTALIVLLAHIGSFVPAARCELSLVDRIFTRIGSSDDLAGGRSTFMVEMSETANILHNATDKSLVLMDEVGRGTSTFDGLSLAWAAAEDLARTRAFTLFATHYFELTVLPESQPAVANVHLNATEHNERIVFLHHVLPGPASQSYGLAVAQLAGVPAPVIQRAREHLKRLETTSLPHEMPSQQSGKPASPMQSDLFASLPHPVIDELSRINPDDISPRQALDLLYAWKMRV
B2: MutSR842E (natural protein, Pseudomonas aeruginosa, UniProt Q9HY08 1-855, looked up)
chain: MTDLSQHTPMMQQYFKLKHQHPDQLMFYRMGDFYELFYEDAKKAAKLLDITLTARGQSGGKAIPMAGIPFHSAEGYLAKLVKLGESVAICEQIGDPATSKGPVERQVVRIITPGTVSDEALLDERRDNLLAAILGDERLFGLAVLDITSGRFSVQEIKGWETLLAELERLNPAELLIPDDWPQGLPAEKRRGVRRRAPWDFDRDSAHKSLCQQFGTQDLKGFGCQNLTLAIGAAGCLLAYAKETQRTALPHLRSLRHDRLDDTVILDGASRRNLELDINLSGGRENTLQSVVDRCQTAMASRLMSRWLNRPLRDRAVLEARQESIACLLERYRFENLQPQLKEIGDLERILARIGLRNARPRDLARLRDALAALPDLQNAMTELEAPHLQALATTIGTYPELAELLAKAIIDNPPAVIRDGGVIKTGYDAELDELQALSENAGQFLMDLEAREKARTGLPNLKVGYNRIHGYFIELPRVQAEQAPADYIRRQTLKGAERFITPELKAFEDKALSAQSRALAREKALYEELLERLIGHLAPLQDSASALAELDVLANLAERALNLDLNRPRFVEHTCLHIEQGRHPVVEQVLETPFVANDLALDADTRMLVITGPNMGGKSTYMRQTALIVLLAHIGSFVPAARCELSLVDRIFTRIGSSDDLAGGRSTFMVEMSETANILHNATDKSLVLMDEVGRGTSTFDGLSLAWAAAEDLARTRAFTLFATHYFELTVLPESQPAVANVHLNATEHNERIVFLHHVLPGPASQSYGLAVAQLAGVPAPVIQRAREHLKRLETTSLPHEMPSQQSGKPASPMQSDLFASLPHPVIDELSRINPDDISPEQALDLLYAWKMRV
B3: MutSN279A (natural protein, Pseudomonas aeruginosa, UniProt Q9HY08 1-855, looked up)
chain: MTDLSQHTPMMQQYFKLKHQHPDQLMFYRMGDFYELFYEDAKKAAKLLDITLTARGQSGGKAIPMAGIPFHSAEGYLAKLVKLGESVAICEQIGDPATSKGPVERQVVRIITPGTVSDEALLDERRDNLLAAILGDERLFGLAVLDITSGRFSVQEIKGWETLLAELERLNPAELLIPDDWPQGLPAEKRRGVRRRAPWDFDRDSAHKSLCQQFGTQDLKGFGCQNLTLAIGAAGCLLAYAKETQRTALPHLRSLRHDRLDDTVILDGASRRNLELDIALSGGRENTLQSVVDRCQTAMASRLMSRWLNRPLRDRAVLEARQESIACLLERYRFENLQPQLKEIGDLERILARIGLRNARPRDLARLRDALAALPDLQNAMTELEAPHLQALATTIGTYPELAELLAKAIIDNPPAVIRDGGVIKTGYDAELDELQALSENAGQFLMDLEAREKARTGLPNLKVGYNRIHGYFIELPRVQAEQAPADYIRRQTLKGAERFITPELKAFEDKALSAQSRALAREKALYEELLERLIGHLAPLQDSASALAELDVLANLAERALNLDLNRPRFVEHTCLHIEQGRHPVVEQVLETPFVANDLALDADTRMLVITGPNMGGKSTYMRQTALIVLLAHIGSFVPAARCELSLVDRIFTRIGSSDDLAGGRSTFMVEMSETANILHNATDKSLVLMDEVGRGTSTFDGLSLAWAAAEDLARTRAFTLFATHYFELTVLPESQPAVANVHLNATEHNERIVFLHHVLPGPASQSYGLAVAQLAGVPAPVIQRAREHLKRLETTSLPHEMPSQQSGKPASPMQSDLFASLPHPVIDELSRINPDDISPRQALDLLYAWKMRV
B4: MutSF33A (natural protein, Pseudomonas aeruginosa, UniProt Q9HY08 1-855, looked up)
chain: MTDLSQHTPMMQQYFKLKHQHPDQLMFYRMGDAYELFYEDAKKAAKLLDITLTARGQSGGKAIPMAGIPFHSAEGYLAKLVKLGESVAICEQIGDPATSKGPVERQVVRIITPGTVSDEALLDERRDNLLAAILGDERLFGLAVLDITSGRFSVQEIKGWETLLAELERLNPAELLIPDDWPQGLPAEKRRGVRRRAPWDFDRDSAHKSLCQQFGTQDLKGFGCQNLTLAIGAAGCLLAYAKETQRTALPHLRSLRHDRLDDTVILDGASRRNLELDINLSGGRENTLQSVVDRCQTAMASRLMSRWLNRPLRDRAVLEARQESIACLLERYRFENLQPQLKEIGDLERILARIGLRNARPRDLARLRDALAALPDLQNAMTELEAPHLQALATTIGTYPELAELLAKAIIDNPPAVIRDGGVIKTGYDAELDELQALSENAGQFLMDLEAREKARTGLPNLKVGYNRIHGYFIELPRVQAEQAPADYIRRQTLKGAERFITPELKAFEDKALSAQSRALAREKALYEELLERLIGHLAPLQDSASALAELDVLANLAERALNLDLNRPRFVEHTCLHIEQGRHPVVEQVLETPFVANDLALDADTRMLVITGPNMGGKSTYMRQTALIVLLAHIGSFVPAARCELSLVDRIFTRIGSSDDLAGGRSTFMVEMSETANILHNATDKSLVLMDEVGRGTSTFDGLSLAWAAAEDLARTRAFTLFATHYFELTVLPESQPAVANVHLNATEHNERIVFLHHVLPGPASQSYGLAVAQLAGVPAPVIQRAREHLKRLETTSLPHEMPSQQSGKPASPMQSDLFASLPHPVIDELSRINPDDISPRQALDLLYAWKMRV
B5: MutSR272A (natural protein, Pseudomonas aeruginosa, UniProt Q9HY08 1-855, looked up)
chain: MTDLSQHTPMMQQYFKLKHQHPDQLMFYRMGDFYELFYEDAKKAAKLLDITLTARGQSGGKAIPMAGIPFHSAEGYLAKLVKLGESVAICEQIGDPATSKGPVERQVVRIITPGTVSDEALLDERRDNLLAAILGDERLFGLAVLDITSGRFSVQEIKGWETLLAELERLNPAELLIPDDWPQGLPAEKRRGVRRRAPWDFDRDSAHKSLCQQFGTQDLKGFGCQNLTLAIGAAGCLLAYAKETQRTALPHLRSLRHDRLDDTVILDGASRANLELDINLSGGRENTLQSVVDRCQTAMASRLMSRWLNRPLRDRAVLEARQESIACLLERYRFENLQPQLKEIGDLERILARIGLRNARPRDLARLRDALAALPDLQNAMTELEAPHLQALATTIGTYPELAELLAKAIIDNPPAVIRDGGVIKTGYDAELDELQALSENAGQFLMDLEAREKARTGLPNLKVGYNRIHGYFIELPRVQAEQAPADYIRRQTLKGAERFITPELKAFEDKALSAQSRALAREKALYEELLERLIGHLAPLQDSASALAELDVLANLAERALNLDLNRPRFVEHTCLHIEQGRHPVVEQVLETPFVANDLALDADTRMLVITGPNMGGKSTYMRQTALIVLLAHIGSFVPAARCELSLVDRIFTRIGSSDDLAGGRSTFMVEMSETANILHNATDKSLVLMDEVGRGTSTFDGLSLAWAAAEDLARTRAFTLFATHYFELTVLPESQPAVANVHLNATEHNERIVFLHHVLPGPASQSYGLAVAQLAGVPAPVIQRAREHLKRLETTSLPHEMPSQQSGKPASPMQSDLFASLPHPVIDELSRINPDDISPRQALDLLYAWKMRV
B6: MutSR272E (natural protein, Pseudomonas aeruginosa, UniProt Q9HY08 1-855, looked up)
chain: MTDLSQHTPMMQQYFKLKHQHPDQLMFYRMGDFYELFYEDAKKAAKLLDITLTARGQSGGKAIPMAGIPFHSAEGYLAKLVKLGESVAICEQIGDPATSKGPVERQVVRIITPGTVSDEALLDERRDNLLAAILGDERLFGLAVLDITSGRFSVQEIKGWETLLAELERLNPAELLIPDDWPQGLPAEKRRGVRRRAPWDFDRDSAHKSLCQQFGTQDLKGFGCQNLTLAIGAAGCLLAYAKETQRTALPHLRSLRHDRLDDTVILDGASRENLELDINLSGGRENTLQSVVDRCQTAMASRLMSRWLNRPLRDRAVLEARQESIACLLERYRFENLQPQLKEIGDLERILARIGLRNARPRDLARLRDALAALPDLQNAMTELEAPHLQALATTIGTYPELAELLAKAIIDNPPAVIRDGGVIKTGYDAELDELQALSENAGQFLMDLEAREKARTGLPNLKVGYNRIHGYFIELPRVQAEQAPADYIRRQTLKGAERFITPELKAFEDKALSAQSRALAREKALYEELLERLIGHLAPLQDSASALAELDVLANLAERALNLDLNRPRFVEHTCLHIEQGRHPVVEQVLETPFVANDLALDADTRMLVITGPNMGGKSTYMRQTALIVLLAHIGSFVPAARCELSLVDRIFTRIGSSDDLAGGRSTFMVEMSETANILHNATDKSLVLMDEVGRGTSTFDGLSLAWAAAEDLARTRAFTLFATHYFELTVLPESQPAVANVHLNATEHNERIVFLHHVLPGPASQSYGLAVAQLAGVPAPVIQRAREHLKRLETTSLPHEMPSQQSGKPASPMQSDLFASLPHPVIDELSRINPDDISPRQALDLLYAWKMRV

Molecular target: the molecule itself
Assay: native gel or EMSA

In order of rising “stoichiometry N” value:
1. B2  2
2. B1  4
3. B3  4
4. B4  4
5. B5  4
6. B6  4
